Reference: patent US10017580B2, “Humanized anti-Tn-MUC1 antibodies and their conjugates” (ADC THERAPEUTICS S.A., priority 2014, dated 2018)

What was measured:
[1] = tested on: ZR-75-1 cell line, which expresses Tn-MUC1; assay: ZR-75-1 cell binding assay by flow cytometry (protocol 6); conditions: for ZR-75-1 cell binding EC50: flow cytometry, live cells
Description: Protocol 6: ZR-75-1 Cell Binding Assay by Flow Cytometry Materials • Wash solution: PBS 0.1% (w/v) sodium azide • Binding buffer: PBS, 10% normal goat serum, 0.1% (w/v) sodium azide) • 96 well U-well microplate Protocol
Exponentially growing cells are suspended by incubation with cell dissociation buffer enzyme-free, Hanks-based (Gibco 13150-016) following the manufacturer's instructions. A cell count/viability is done on a dilution of 10 ul cells+Trypan Blue, 10 ul, with a haemocytomer. The suspension is centrifuged and the cell pellet re-suspended in binding buffer at 3×10^6 per ml. If significant levels of aggregates are present in the cell count, the suspension is filtered to remove aggregates. The cell suspension is dispensed (50 ul/well) in 96 well U-bottom plates and cooled on ice for 10 minutes. Primary antibody (50 ul/well) diluted in binding buffer (typically 1 ug per ml or less) is added to each well and incubated at 4° C. for 1 hour. The microplate is centrifuged 5 min at 300-400 g at 4° C., flicked to remove the supernatant and then the cell pellet re-suspended in 200 uL of wash buffer (PBS, 0.1% sodium azide). Centrifugation and re-suspension are done 4 times in all. After the last centrifugation, cells are re-suspended in 50 uL of binding buffer containing the biotin labelled conjugate 1:250 (kept at −20 C: Biotin-SP-AffiniPure F(ab′)2 Fragment Goat antihuman IgG (H+L); Jackson 109-066-088). Cells are incubated for 1 hour at 4 C, then washed 4 times as before. Cells are resuspended in 50 ul of binding buffer containing Streptavidin, Alexa Fluor® 488 conjugate (Life Technologies s11223) diluted 1:250 and Fixable Viability Dye eFluor® 780 (eBioscience 65-0865) diluted 1:2000, The cells are incubated at 4° C. for 1 hour and then washed 3 times, as above. Cells are then re-suspended in PBS if reading immediately or fixed in 100 ul of paraformaldehyde (2% (w/v) in PBS) and analysed with by flow cytometer (Accuri C6), gating on live cells which have a lower Fixable Viability Dye MFI compared to dead cells.
IgG binding potency to Tn-MUC1 was measured as per protocol 4 and binding to the ZR-75-1 cell line, which expresses Tn-MUC1, was measured as per protocol 6.

Tn-MUC1 (16TR-MUC1-Tn) = assay: Tn-MUC1 binding ELISA (protocol 4); design: species or system human; conditions: for Tn-MUC1 binding EC50: ELISA on 16TR-MUC1-Tn coated plate
Chain of Tn-MUC1 (16TR-MUC1-Tn) (P15941 141-460 limits assumed): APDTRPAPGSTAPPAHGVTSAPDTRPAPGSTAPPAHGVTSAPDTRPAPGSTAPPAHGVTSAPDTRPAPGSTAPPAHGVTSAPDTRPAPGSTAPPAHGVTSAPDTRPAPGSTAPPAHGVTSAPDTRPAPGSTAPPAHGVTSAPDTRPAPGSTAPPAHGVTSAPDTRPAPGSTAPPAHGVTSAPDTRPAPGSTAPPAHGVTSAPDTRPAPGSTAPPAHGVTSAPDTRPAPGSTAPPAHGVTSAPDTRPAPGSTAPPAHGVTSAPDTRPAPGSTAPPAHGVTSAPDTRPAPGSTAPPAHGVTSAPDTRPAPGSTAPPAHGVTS

[2] = Thermal denaturation assay (protocol 5); type: physicochemical; conditions: 50% inactivation temperature, 10 minutes heating, read by antigen-binding ELISA

B1: Ab6: anti-Tn MUC 1 antibody comprising a VH domain according to SEQ ID NO. 28 and a VL domain according to SEQ ID NO. 33 (antibody, V domains shown)
VH: EVQLVESGAEVKKPGASVEVSCQASGYTFTDHAIHWVRQAPGQGLEWMGHFSPGNTDIKYNDKFKGRVTMTVDRSINTAYMELRRLRSDDTAVYYCKTSTFFFDYWGQGTMVTVSS
VL: DIVMTQSPLSLPVTPGEPASISCKSSQSLLNSGDQKNYLTWYLQKPGQSPQLLIYWASTRESGVPDRFSGSGSGTDFTLKISRVEAEDVGVYYCQNDYSYPLTFGGGTKVEIK
modifications: Synthetic sequence: Humanized antibody heavy chain variable region 5E5RHC9; Synthetic sequence: Humanized antibody light chain variable region 5E5RKB
[1]
  ZR-75-1 cell binding EC50: 0.0413 µg/mL
Tn-MUC1 (16TR-MUC1-Tn)
  Tn-MUC1 binding EC50: 0.0198 µg/mL
Tn-MUC1 (16TR-MUC1-Tn); Tn-MUC1 binding assay data
  TnMUC1 binding potency compared with mouse 5E5 (in words): substantially improved over the mouse 5E5

B2: Ab5: anti-Tn MUC 1 antibody comprising a VH domain according to SEQ ID NO. 19 and a VL domain according to SEQ ID NO. 33 (antibody, V domains shown)
VH: EVQLVQSGAEVKKPGESLKISCKISGYIFTDHAIHWVRQMPGKGLEWMGHFSPGNTDIKYNDKFKGQVTLSVDRSINTAYLQWSSLKASDTAIYFCKTSTFFFDYWGQGTRVTVSS
VL: B1 VL
modifications: Synthetic sequence: Humanized antibody heavy chain variable region 5E5RHB10; Synthetic sequence: Humanized antibody light chain variable region 5E5RKB
[1]; flow cytometry EC50 data
  ZR-75-1 binding potency compared with mouse 5E5 (in words): substantially improved over the mouse 5E5
[1]
  ZR-75-1 cell binding EC50: 0.01842 µg/mL
Tn-MUC1 (16TR-MUC1-Tn)
  Tn-MUC1 binding EC50: 0.02687 µg/mL
[2]
  Tm: 62.58 °C

B3: Ab4: anti-Tn MUC 1 antibody comprising a VH domain according to SEQ ID NO. 9 and a VL domain according to SEQ ID NO. 33 (antibody, V domains shown)
VH: QVQLVQSGAEVKKTGSSVKVSCKASGYTFTDHAIHWVRQAPGQALEWMGHFSPGNTDIKYNDKFKGRVTLTVDRSMSTAYMELSSLRSEDTAMYYCKTSTFFFDYWGQGTMVTVSS
VL: B1 VL
modifications: Synthetic sequence: Humanized antibody heavy chain variable region 5E5RHA8; Synthetic sequence: Humanized antibody light chain variable region 5E5RKB
[1]
  ZR-75-1 cell binding EC50: 0.04229 µg/mL
Tn-MUC1 (16TR-MUC1-Tn)
  Tn-MUC1 binding EC50: 0.07549 µg/mL
[2]
  Tm: 65.23 °C
